Experiment [1] addresses T1, human BSG2 (basigin isoform 2) on the cell surface (human, UniProt P35613 140-385).
T1 sequence: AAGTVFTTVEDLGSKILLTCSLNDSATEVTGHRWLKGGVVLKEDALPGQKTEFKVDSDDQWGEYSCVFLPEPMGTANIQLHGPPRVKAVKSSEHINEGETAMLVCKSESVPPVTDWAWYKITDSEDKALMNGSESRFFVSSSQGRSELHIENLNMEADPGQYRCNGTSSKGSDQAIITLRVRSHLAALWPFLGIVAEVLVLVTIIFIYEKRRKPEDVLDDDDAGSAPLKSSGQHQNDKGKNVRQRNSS
Put plainly: cell-based or functional assay.

Experiment [2] deals with T1, human BSG2 (basigin isoform 2) on the …. In words: cell-based or functional assay. The source holds these as a separate data set.
For experiment [3] the target is unchanged. In words: flow cytometry (FACS) on BAF3 cells expressing human BSG2. The protocol:
(§1) Stable cell lines overexpressing cell-surface BSG2 or human tumor cell lines were harvested from tissue culture flasks, washed three times and resuspended in phosphate buffered saline (PBS) containing 1% bovine serum albumin and 1 mM CaCl₂ (FACS buffer). 5×10⁵ cells were incubated with antibodies at various concentrations in FACS buffer for 60 minutes on ice. Cells were washed twice and the bound murine monoclonal antibody was detected with a goat Fab′2 anti-mouse IgM+IgG+IgA (H+L) R-phycoerythrin-conjugated antibody (Southern Biotechnology Associates, Inc., Birmingham, Ala., Catalog No. 1012-08) diluted 1:500. Following incubation on ice (4° C., 60 minutes), cells were washed three times and resuspended in FACS buffer. Fluorescence was measured using a Becton Dickinson FACSCalibur-HTS (Becton Dickinson, San Jose, Calif., US). Data were analyzed using Graphpad Prism software and EC₅₀ values were reported as the concentration of antibody to achieve 50% of maximal BSG2 antibodies binding to BSG2 expressing cells.
(In flow cytometry, cells or beads pass a laser one at a time.)

Experiment [4] has the same target. In words: cell-based ECL (MSD) binding on cells expressing human BSG2. On the procedure: (§2) Cells were plated at 25,000 cells/well in 25 μl PBS using 96 well MSD high binding plates (MSD, catalogue no. L11XB-3), and incubated at 37° C. for 1 hour. 25 μl/well of blocking solution (30% serum in PBS) was added to the plates for 30 minutes at room temperature with mild agitation. Plates were then incubated with 25 μl/well of BSG2 antibodies (10 μg/ml) diluted in assay buffer (10% serum in PBS) for 1 hour at room temperature with mild agitation, and then washed 3× with PBS. Goat anti-mouse or anti-human IgG sulfotag was added at 1 μg/ml for 1 hour with mild agitation, and plates were washed 3× with PBS. After the final wash, plates were incubated with 2×MSD surfactant-free read buffer (catalogue no. R92TD-2) and the signal was detected on a MSD SECTOR Imager 6000. Data were analyzed using Graphpad Prism software and EC₅₀ values were reported.
Select humanized variants were also tested for their functionality using ADCC and cell viability assays (described in Examples 1.6 and 1.7).

For experiment [5], the target named is T2, cynomolgus monkey BSG2 on the cell surface (cynomolgus monkey).
T2 construct: whole, on cells; also called BAF3-cyno BSG2; Cyno BSG2
Put plainly: flow cytometry (FACS) on BAF3 cells expressing cynomolgus BSG2. On the procedure:
as §1

Experiment [6] deals with T1, human BSG2 (basigin isoform 2) on the …. Put plainly: cell-based ECL (MSD) binding on whole cells expressing human BSG2.
Experiment [7] addresses T2, cynomolgus monkey BSG2 on the cell …. In words: cell-based ECL (MSD) binding on whole cells expressing cynomolgus BSG2. On the procedure:
as §2
(§3) BSG2 antibody binding activities against whole cells expressing human or cynomolgus monkey BSG2 were assessed by ECL using MSD technology (described in Example 1.3) and the receptor binding assay (described in Example 1.4) and are shown in Table 11.

Experiment [8] deals with T1, human BSG2 (basigin isoform 2) on the …. In words: receptor binding assay, Eu-labeled antibody on cells expressing human BSG2. On the procedure: (§4) Cell lines expressing BSG2 were harvested and washed once in assay buffer (PBS, 0.1% BSA, 0.02% Na Azide, 10 mM EDTA) and resuspended to 5×10⁶ cells per mL. Serial 1:2 dilutions of ⁺³Eu-labeled anti-BSG2 antibody stock in assay buffer were made for final concentrations ranging from 1.6×10⁻⁸-7.7×10⁻¹² M, and a 4 mg/mL solution of unlabeled anti-BSG2 antibody was also prepared. To 96 well round bottom plates, 25 μl of ⁺³Eu-labeled antibody dilutions were added to 25 μl buffer (total counts), or 25 μl of unlabeled antibody were added to 25 μl buffer (background counts). 50 μl of cells at 2.5×10⁵ cells per well were then added to all samples, mixed gently, and incubated on ice for 1 hour. Cell bound antibody was then separated from unbound antibody by transferring 20 μL of the reaction mixture to Acrowell 96 well filter plates (Pall PN 5020), centrifuged for 5 min (2200 rpm), washed 3× with 150 μL cold assay buffer, and centrifuged for 5 min. Signal was determined by incubating samples with 150 μL/well of enhancement buffer and read using Envision. The specific counts were determined by subtracting the background counts (cells+labeled antibody+excess cold antibody) from the corresponding total counts (cells+labeled antibody) for each antibody concentration. The labeled antibody concentration versus total counts was analyzed using Graphpad Prism 4 to calculate Kd and Bmax values.

Experiment [9] deals with T2, cynomolgus monkey BSG2 on the cell …. Put plainly: receptor binding assay, Eu-labeled antibody on cells expressing cynomolgus BSG2. On the procedure:
as §4, with “Cell bound antibody was then separated from unbound antibody by transferring 20 μL of the reaction mixture to Acrowell 96 well filter plates (Pall PN 5020), centrifuged for 5 min (2200 rpm), washed 3× with 150 μL cold assay buffer, and centrifuged for 5 min.” left out
as §3

As a reminder, the EC50 is the concentration at which the effect is half-maximal. In general, Kd refers to a measure of binding affinity in units of concentration.

B1: mouse anti-human BSG2 monoclonal antibody ML64-6A11-3A3 (antibody, mouse IgG2a, V domains shown)
VH: EVKLEESGGGLVQPGGSMKLSCVASGFTFSNFWMDWVRQSPEKGLEWIAGIRLKSYNYATHYAESVKGRFTISRDDSKSSVYLQMNNLRAEDTGIYYCTDWDGAYWGQGTLVTVSA
VL: DIVMTQSHKFMSTSVGDRVSITCKASQDVSTDVAWYQQKPGQSPKLLIYSASYRYTGVPDRFTGSGSGTDFTFTISSVQAEDLAVYYCQQHYSTPFTFGSGTKLEIK
notes: Hybridoma antibody, mouse IgG2a/kappa; also called 6A11-3A3 parental mouse antibody; Ab 3A3
On to B1, for which the “CDC assay (% killing at 10 µg/ml Ab), MiaPaCa-2 pancreatic cancer cells” value in [1] is 84 % killing. In addition, the “Mitochondrial membrane potential, fold decrease against Neg control IgG2a, MiaPaCa cells” value in experiment [2] amounted to 2.5 fold decrease. Further, the “ph-Akt, fold decrease against Neg control IgG2a, MiaPaCa cells” value in [2] was 2 fold decrease. Further, the EC50 is 0.41 nM in experiment [3]; 0.6 nM in experiment [4]; 0.35 nM in experiment [5]; 0.6 nM in experiment [6]; 7.6 nM in experiment [7]. Further, the Kd in experiment [8] was 2 nM; in experiment [9], 3.6 nM.
